Experimental data taken from publication PMC6959987.

How the values were obtained:
[1] = target: Augmin-GFP (purified mitotic Augmin complex) (Drosophila | Drosophila (endogenous in embryos)) (UniProt Q9W0G7); assay: fluorescence microscopy of junctions between microtubules loaded with purified complexes; as the junction assay, but with HiLyte 647-labelled GMPCPP MT seeds (1:10) to mark the minus ends
[2] = target: Augmin-GFP (purified mitotic Augmin complex) (Drosophila | Drosophila (endogenous in embryos)) (UniProt Q9W0G7); assay: fluorescence microscopy of junctions between microtubules loaded with purified complexes; taxol-stabilised Rhodamine-MTs incubated with γ-TuRC-GFP and HiLyte Fluor 488-MTs incubated with Augmin-GFP, each pelleted through 15% glycerol, mixed 1:1 for 10 min at room temperature, fixed and …
[3] = target: Augmin-GFP (purified mitotic Augmin complex) (Drosophila | Drosophila (endogenous in embryos)) (UniProt Q9W0G7)

percent of γ-TuRC-RhodMTs generating branches on Augmin-488MTs [1]: 64%
percent of γ-TuRC-containing RhodMTs that terminate at an Augmin-containing 488MT [2]: 55%
x50 (time at which 50% of Tubulin polymerisation was achieved) with Augmin-GFP added to γ-TuRC-GFP; γ-TuRC-GFP alone 16.5 mins, control 31.5mins [3]: 9.5 min
Substance: γ-TuRC-GFP (purified mitotic γ-Tubulin Ring Complex) (from UniProt P42271 1-457; P42271 1-457)
